Data on 2 molecules can be found in PMC10883266, “TTLL12 is required for primary ciliary axoneme formation in polarized epithelial cells” (EMBO Reports, 2023).

In test [1] the target is recombinant 6His-TTLL12 (human) (UniProt Q14166). Briefly: pull-down; 10 μg (0.18 μM) untagged porcine brain tubulin alone or with 10 μg 6His-TTLL12 in 20 mM HEPES pH 7.4, 150 mM KCl, overnight at 4 °C to prevent polymerization; Ni beads; washes with 300 mM KCl, 0.1% Triton X-100; Coomassie blue staining.
Test [2] addresses T1, recombinant GST-Rab19 (UniProt A4D1S5 1-217).
T1 construct: small GTPase Rab19; loaded with GDP or GMP-PNP before the assay; Loaded with GDP or with GMP-PNP (non-hydrolyzable GTP analog); also called GST-Rab19 (GDP); GST-Rab19 (GMP-PNP); source: E. coli BL21 Codon Plus, purified as previously described (Jewett et al, 2021); not shown: GST, N-terminal, kept
T1 sequence (looked up): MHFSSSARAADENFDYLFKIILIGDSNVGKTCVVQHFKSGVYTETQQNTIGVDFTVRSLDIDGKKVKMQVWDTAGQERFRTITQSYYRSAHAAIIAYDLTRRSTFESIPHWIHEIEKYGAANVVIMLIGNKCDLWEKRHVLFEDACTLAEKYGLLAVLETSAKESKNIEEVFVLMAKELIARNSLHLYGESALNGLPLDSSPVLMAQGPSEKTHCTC
As to the kind of experiment: pull-down; 10 μg GST-Rab19 loaded with GDP or GMP-PNP + 10 μg 6His-TTLL12 in 20 mM HEPES pH 7.4, 150 mM NaCl, 1% BSA, 1 h room temperature; glutathione beads; washes with 300 mM NaCl, 0.1% Triton X-100; Coomassie blue staining. As to conditions: both partners purified.

Consider “untagged purified porcine brain tubulin (α/β-tubulin heterodimer) (from UniProt P02554 1-445) (complex)”, for which the fold increase in tubulin co-precipitation with Ni beads over tubulin alone in test [1] came out at 3 fold.

B1: recombinant 6His-TTLL12 (natural protein, human, UniProt Q14166 1-644, looked up)
chain: MEAERGPERRPAERSSPGQTPEEGAQALAEFAALHGPALRASGVPERYWGRLLHKLEHEVFDAGEVFGIMQVEEVEEEEDEAAREVRKQQPNPGNELCYKVIVTRESGLQAAHPNSIFLIDHAWTCRVEHARQQLQQVPGLLHRMANLMGIEFHGELPSTEAVALVLEEMWKFNQTYQLAHGTAEEKMPVWYIMDEFGSRIQHADVPSFATAPFFYMPQQVAYTLLWPLRDLDTGEEVTRDFAYGETDPLIRKCMLLPWAPTDMLDLSSCTPEPPAEHYQAILEENKEKLPLDINPVVHPHGHIFKVYTDVQQVASSLTHPRFTLTQSEADADILFNFSHFKDYRKLSQERPGVLLNQFPCENLLTVKDCLASIARRAGGPEGPPWLPRTFNLRTELPQFVSYFQQRERWGEDNHWICKPWNLARSLDTHVTKSLHSIIRHRESTPKVVSKYIESPVLFLREDVGKVKFDIRYIVLLRSVRPLRLFVYDVFWLRFSNRAFALNDLDDYEKHFTVMNYDPDVVLKQVHCEEFIPEFEKQYPEFPWTDVQAEIFRAFTELFQVACAKPPPLGLCDYPSSRAMYAVDLMLKWDNGPDGRRVMQPQILEVNFNPDCERACRYHPTFFNDVFSTLFLDQPGGCHVTCLV
notes: Tubulin Tyrosine Ligase-Like 12 (TTLL12), human cDNA (pLVX304-hTTLL12); the form rests on the printed cloning primers; also called Tubulin Tyrosine Ligase-Like 12; source: Sf9 cells (baculovirus, pFastBac HTA), purified (nickel beads, dialysed into PBS with 1 mM DTT); not shown: 6His, …
On to B1, for which, in test [2], the “fold increase in TTLL12 binding over a GST-only control” value was roughly 5 fold.
